Source: publication PMC6219580, “Conversion of an amide to a high-energy thioester by Staphylococcus aureus sortase A is powered by variable binding affinity for calcium” (Scientific Reports, 2018)
Where no end group is shown, it is not given here.

Molecular target: T1, Staphylococcus aureus sortase A C184A mutant (residues 60-206) (Staphylococcus aureus, UniProt Q2FV99 60-206, C184A)
T1 construct: Sortase A, Staphylococcus aureus, residues 60-206 (SrtAΔN59) with the active-site mutation C184A; Uniformly 15N-labelled for the NMR titrations; gene cloned into a PET3a vector; also called SrtA C184A; active-site mutant C184A; source: E. coli BL21 (Rosetta), purified (anion exchange, Superdex75 gel filtration)
T1 sequence (looked up): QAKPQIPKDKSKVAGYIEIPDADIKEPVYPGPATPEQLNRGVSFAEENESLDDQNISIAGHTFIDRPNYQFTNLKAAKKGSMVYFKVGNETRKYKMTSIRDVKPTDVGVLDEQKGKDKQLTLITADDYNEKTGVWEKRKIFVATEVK
Assay: NMR titration; 15N-HSQC titration of the protein-Ca2+ complex at increased concentration with QALPETG-NH2; linear chemical shift changes only, far from saturation
Conditions: both partners purified

B1: QALPETG-NH2 (peptide)
peptide: QALPETG-NH2
notes: substrate peptide with the canonical LPXTG sorting motif; also called substrate peptide; source: synthetic peptide, bought: KE Biochem Co. Ltd (China)
- Kd: > 50 mM
